We go through twelve molecules from patent publication US20240029824A1 (University of Washington, published 2024).

One test has as its target T1, DHT06 chain B.
T1 chain: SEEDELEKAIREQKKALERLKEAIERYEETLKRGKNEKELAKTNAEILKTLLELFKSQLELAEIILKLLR
Description: co-expression, IMAC, SEC, native MS; chains of one ABC heterotrimer. The source says:
(§1) Genes encoding 85 heterotrimers in a tricistronic expression vector were obtained, and the proteins were expressed in E. coli and purified via IMAC with only one chain having the 6×His-tag. Nine of the designs (FIG. 3a) had monodisperse SEC peaks (FIG. 3b), were almost exclusively ABC by nMS, and had good SAXS fits to the design models (Table 7). […] Eight of the designs are parallel heterotrimers, while DHTO9 is an antiparallel heterotrimer. […] For 3 other designs, only the ABC heterotrimer was determined to form by nMS (when the respective SEC fraction was analyzed) but the heterotrimer SEC peak was preceded by soluble aggregate that would make building with these constructs difficult downstream. We explored the dependence of cooperativity on connectivity between the three chains by changing the positions of the loops across different helices in DHT03, while keeping the rest of the interface intact. […] The ability to sustain alternate loop closures increases the number of heteromeric building blocks available for future nanostructure assembly applications and may enable rigid fusion of functional domains to the different termini available.
(§2) Samples were analyzed by online buffer exchange native mass spectrometry (nMS) to evaluate sample purity and accurately determine oligomeric states⁴². Multiple instruments were used as the analyses were carried out over the duration of the protein design process. The mass spectrometers used for detection were a Q Exactive™ UHMR modified with a surface-induced dissociation device and an Exactive™ Plus EMR modified with a selection quadrupole and a surface-induced dissociation device (Thermo Fisher Scientific)⁴³. The liquid chromatography systems used for the buffer exchange include a Vanquish™ Duo UHPLC and a Dionex™ Ultimate 3000 HPLC (Thermo Fisher Scientific). A heated electrospray ionization source (HESI-II, Thermo Fisher Scientific) with a spray voltage of ˜4 kV was used for ionization.

The target in another test is T2, DHT06 chain C.
T2 chain: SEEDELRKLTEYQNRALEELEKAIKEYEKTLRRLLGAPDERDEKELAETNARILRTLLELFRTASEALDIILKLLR
The description is as above.
Description: as §1, §2

Test [1] deals with T3, DHT03_variant_AB-4 chain B.
T3 chain: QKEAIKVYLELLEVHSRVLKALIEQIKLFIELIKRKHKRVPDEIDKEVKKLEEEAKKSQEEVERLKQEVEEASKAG
Description: native MS; loop-connectivity variant of DHT03, AB heterodimer.

Test [2] concerns the target T4, DHT03_variant_AB-1 chain B.
T4 chain: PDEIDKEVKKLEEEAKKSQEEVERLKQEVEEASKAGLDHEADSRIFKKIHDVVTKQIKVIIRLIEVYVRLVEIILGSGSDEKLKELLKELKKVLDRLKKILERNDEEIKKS
The description is as above.

In test [3] the target is T5, DHT03_variant_AB-2 chain B.
T5 chain: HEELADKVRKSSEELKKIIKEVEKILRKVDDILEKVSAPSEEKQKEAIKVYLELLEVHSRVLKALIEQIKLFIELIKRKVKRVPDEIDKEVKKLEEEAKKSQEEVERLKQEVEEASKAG
The test is described as above.

The target in the next test is T6, DHT09 chain C.
T6 chain: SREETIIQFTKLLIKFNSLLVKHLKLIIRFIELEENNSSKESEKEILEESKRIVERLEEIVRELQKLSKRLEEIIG
Description: co-expression, IMAC, SEC, native MS; chains of one ABC heterotrimer.
Description: as §1, §2

In another test the target is T7, DHT09 chain B.
T7 chain: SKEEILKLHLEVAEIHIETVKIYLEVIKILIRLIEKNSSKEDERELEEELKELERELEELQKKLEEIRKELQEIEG
The description is as above.
Description: as §1, §2

The target in the next test is T8, DHT08 chain B.
T8 chain: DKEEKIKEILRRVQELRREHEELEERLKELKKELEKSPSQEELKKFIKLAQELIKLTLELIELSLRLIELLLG
The description is as above.
Description: as §1, §2

For the next test, the target named is T9, DHT08 chain C.
T9 chain: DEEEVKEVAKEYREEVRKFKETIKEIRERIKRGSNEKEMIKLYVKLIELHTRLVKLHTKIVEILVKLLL
The description is as above.
Description: as §1, §2

In test [4] the target is T10, DHT03_variant_AB-3 chain B.
T10 chain: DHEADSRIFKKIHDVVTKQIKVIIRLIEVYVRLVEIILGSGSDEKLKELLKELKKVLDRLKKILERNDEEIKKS
Description: native MS; loop-connectivity variant of DHT03, AB heterodimer.

The next test addresses T11, C4-DHT03-02 chain B.
T11 construct: four copies in the A4B4C4 ring
T11 chain: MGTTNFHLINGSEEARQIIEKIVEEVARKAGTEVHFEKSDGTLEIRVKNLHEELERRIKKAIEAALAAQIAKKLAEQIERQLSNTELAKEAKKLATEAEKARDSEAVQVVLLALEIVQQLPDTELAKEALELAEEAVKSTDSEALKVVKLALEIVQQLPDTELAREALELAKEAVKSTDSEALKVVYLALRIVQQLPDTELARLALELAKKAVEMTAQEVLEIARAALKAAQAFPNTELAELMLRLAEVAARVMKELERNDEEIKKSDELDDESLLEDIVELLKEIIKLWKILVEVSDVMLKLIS
Description: chains mixed and annealed, SEC, negative stain EM; A4B4C4 ring.

The target of test [5] is T12, DHT03 chain C (SEQ ID NO: 59).
T12 chain: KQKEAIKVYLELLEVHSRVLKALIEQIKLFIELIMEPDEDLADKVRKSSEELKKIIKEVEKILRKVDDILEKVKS
The description is as above.

Another test deals with T13, DHT07 chain B.
T13 chain: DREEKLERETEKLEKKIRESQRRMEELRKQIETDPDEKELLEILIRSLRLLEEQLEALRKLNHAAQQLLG
Description: co-expression, IMAC, SEC, native MS; chains of one ABC heterotrimer.
Description: as §1, §2

The target in the next test is T14, DHT07 chain C.
T14 chain: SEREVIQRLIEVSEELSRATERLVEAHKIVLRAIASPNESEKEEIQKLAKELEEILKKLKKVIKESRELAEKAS
The description is as above.
Description: as §1, §2

Another test has as its target T15, DHT02 chain C.
T15 chain: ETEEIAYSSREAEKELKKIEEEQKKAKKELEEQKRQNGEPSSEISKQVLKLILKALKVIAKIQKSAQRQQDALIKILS
Described as above.
Description: as §1, §2

A further test deals with T16, DHT02 chain B.
T16 chain: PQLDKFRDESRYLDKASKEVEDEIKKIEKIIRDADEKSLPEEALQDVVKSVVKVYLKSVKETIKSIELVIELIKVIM
The description is as above.
Description: as §1, §2

For another test, the target named is T17, DHT04 chain B.
T17 chain: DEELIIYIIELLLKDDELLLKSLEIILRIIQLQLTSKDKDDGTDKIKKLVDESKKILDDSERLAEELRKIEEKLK
The test is described as above.
Description: as §1, §2

The next test addresses T18, DHT04 chain C.
T18 chain: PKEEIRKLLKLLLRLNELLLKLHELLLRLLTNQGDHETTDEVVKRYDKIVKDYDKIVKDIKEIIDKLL
The description is as above.
Description: as §1, §2

A further test deals with T19, DHT10 chain C.
T19 chain: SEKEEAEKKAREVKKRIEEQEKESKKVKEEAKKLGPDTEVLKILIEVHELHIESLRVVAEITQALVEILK
The test is described as above.
Description: as §1, §2

The next test deals with T20, DHT10 chain B.
T20 chain: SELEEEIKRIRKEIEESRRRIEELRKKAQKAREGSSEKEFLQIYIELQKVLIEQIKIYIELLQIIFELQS
The description is as above.
Description: as §1, §2

B1: DHT06 chain A (designed binder)
chain: DEKELAKTNAEILKTLLELFEAESRLQEIILKLLERPDEKEEDELKRALERLKEALERLEEAIKRYEETLKRLL
On to B1, for which the binding result with DHT06 chain B and with DHT06 chain C was “binds” throughout.

B2: DHT03_variant_AB-4 chain A (designed binder)
chain: DHEADSRIFKKIHDVVTKQIKVIIRLIEVYVRLVEIILGSGSDEKLKELLKELKKVLDRLKKILERNDEEIKKSDELDDESLLEDIVELLKEIIKLWKILVELSDILLKLIGGDDKVRKSSEELKKIIKEVEKILRKVDDILYKVS
For B2, in test [1], the binding result is listed as “binds”.

B3: DHT03_variant_AB-1 chain A (designed binder)
chain: DESLLEDIVELLKEIIKLWKILVELSDILLKLIGGDDKVRKSSEELKKIIKEVEKILRKVDDILYKVSAPSEEKQKEAIKVYLELLEVHSRVLKALIEQIKLFIELIKR
As to B3, the binding result in test [2] is given as “binds”.

B4: DHT03_variant_AB-2 chain A (designed binder)
chain: DHEADSRIFKKIHDVVTKQIKVIIRLIEVYVRLVEIILGSGSDEKLKELLKELKKVLDRLKKILERNDEEIKKSDELDDESLLEDIVELLKEIIKLWKILVELSDILLKLID
As to B4, in [3], the binding result is given as “binds”.

B5: DHT09 chain A (designed binder)
chain: SEDEDLIRSVRVIQKSVEIILEMVKIIQELLKSTSEEELKELLKKLKRLIEKLEELLRQYEELLKKIKG
As to B5, the binding result with DHT09 chain C and with DHT09 chain B was “binds” each time.

B6: DHT08 chain A (designed binder)
chain: SKEEIEKELKKLKKELEELKREIEKSTKKLEEVRGSNSEKELIQIIKEQIEISERLLEISTRLLEIIIKLLG
On to B6, for which the binding result with DHT08 chain B and in the test with DHT08 chain C was “binds” throughout.

B7: DHT03_variant_AB-3 chain A (designed binder)
chain: DESLLEDIVELLKEIIKLWKILVELSDILLKLIGGDDKVRKSSEELKKIIKEVEKILRKVDDILYKVSAPSEEKQKEAIKVYLELLEVHSRVLKALIEQIKLFIELIKRKHKRVPDEIDKEVKKLEEEAKKSQEEVERLKQEVEEASKAG
Take B7: the binding result in [4] is “binds”.

B8: C4-DHT03-02 chain A (designed binder)
chain: MGNTHFIVVHGGEEARQLAETAVREISKKEGTEVRFEKKDGLLSIEVKNLSEELQRLIQELLQLLVRLAALLEAVRAVEEAIKRNPDNDEAVETAVRLARELKKVAELLQELAKKAGVPAILRGALLALEVAVRAVELAIKSNPDNDEAVETAVRLARELLKVAAELAERAAKTKDEELIKLAQRAIEVAQRAVELAKKSNKDNEEAEKTRLALEAMELALQIFRQLKNTELAREAIELATEAAKATDSEALKVVKLALKIVQQLPDTELAKEALELAKEAVKSTDSEALKVVELALEIVQQLPDTELAKEALKLAKEAVKSTDSEALKVVYLALRIVQQLPDTELAREALELAKEAVKSTDSEQLEVVRLALEIVQLAPDTRLARAALKLAKEAVKSTDQEELKKVKAILRVASEVLKLEEEAKKSQEEVERLKQEVEKASKAGLDHEGDSRIFKKIHDVVTKQIKVILRLIAVYAELVAIIG
notes: four copies in the A4B4C4 ring
For the molecule B8, the binding result (in the test with C4-DHT03-02 chain B; in [5]) was “binds” in each case.

B9: DHT07 chain A (designed binder)
chain: SEKELIQLYVEAQELYAEAFELQVEIFKLLVKILSANSPKDEKEKIEKRIEEVQKRIKEIQERLQEIQKRLEEAG
With B9, the binding result with DHT07 chain B and with DHT07 chain C was “binds” throughout.

B10: DHT02 chain A (designed binder)
chain: PDSDELRKLLKQLEDLLQQLKDLIDKAERHNGDNDVILELHEIYLRLLDIYQKLAKIILKLLR
Consider B10, for which the binding result with DHT02 chain C and in the test with DHT02 chain B was “binds” in each case.

B11: DHT04 chain A (designed binder)
chain: PERELLELLIRLFNSQVKLFELQKELLELLRELLEENSEDNSRKLEDLLRKIQELLKENQDLLYTVEDVLRKLK
For the molecule B11, the binding result in the test with DHT04 chain B and with DHT04 chain C was “binds” throughout.

B12: DHT10 chain A (designed binder)
chain: SEEEELKKLQEEIKKLKKQVERLEKESKELEKRLEKSPSEEIAKELLRITAELVEISEELAEATKRLLEIAG
With B12, the binding result with DHT10 chain C and in the test with DHT10 chain B was “binds” in each case.
